For the assay, the target named is T1, full-length PARP1, purified recombinant (UniProt P09874 1-1014).
T1 construct: PARP1, full length; also called purified PARP1; source: purified recombinant
Description: MST; Monolith NT.115, 17% LED power, medium MST power, MST-on time of 10 s; full-length proteins. Conditions: both partners purified.

T1 sequence (P09874 whole entry): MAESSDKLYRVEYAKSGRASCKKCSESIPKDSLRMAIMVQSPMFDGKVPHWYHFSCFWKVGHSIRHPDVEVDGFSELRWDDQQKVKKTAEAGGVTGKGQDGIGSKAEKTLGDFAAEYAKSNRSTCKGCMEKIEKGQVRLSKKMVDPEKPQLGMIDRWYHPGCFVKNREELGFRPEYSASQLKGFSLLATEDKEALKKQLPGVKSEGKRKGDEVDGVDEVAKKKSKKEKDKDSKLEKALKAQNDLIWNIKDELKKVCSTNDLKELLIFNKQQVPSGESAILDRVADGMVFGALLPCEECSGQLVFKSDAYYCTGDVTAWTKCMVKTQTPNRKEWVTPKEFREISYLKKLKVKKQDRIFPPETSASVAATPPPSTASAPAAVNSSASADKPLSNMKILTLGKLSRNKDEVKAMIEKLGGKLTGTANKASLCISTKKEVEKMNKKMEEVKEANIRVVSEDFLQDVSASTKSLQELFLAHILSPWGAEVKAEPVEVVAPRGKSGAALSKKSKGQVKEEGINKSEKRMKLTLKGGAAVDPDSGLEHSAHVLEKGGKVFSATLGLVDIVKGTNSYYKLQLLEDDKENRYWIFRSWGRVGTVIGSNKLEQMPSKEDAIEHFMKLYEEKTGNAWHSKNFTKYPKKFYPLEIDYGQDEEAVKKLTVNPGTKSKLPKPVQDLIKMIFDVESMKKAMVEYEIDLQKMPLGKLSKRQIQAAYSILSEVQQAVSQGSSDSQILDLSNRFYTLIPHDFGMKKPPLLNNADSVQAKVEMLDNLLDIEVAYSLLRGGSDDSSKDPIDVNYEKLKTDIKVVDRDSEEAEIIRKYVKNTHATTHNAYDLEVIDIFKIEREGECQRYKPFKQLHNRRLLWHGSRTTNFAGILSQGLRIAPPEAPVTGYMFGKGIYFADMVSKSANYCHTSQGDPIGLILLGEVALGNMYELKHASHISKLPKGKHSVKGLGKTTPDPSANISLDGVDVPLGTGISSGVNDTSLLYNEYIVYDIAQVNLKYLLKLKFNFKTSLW

B1: full-length MGMT, purified recombinant (natural protein, UniProt P16455 1-207, looked up)
chain: MDKDCEMKRTTLDSPLGKLELSGCEQGLHEIKLLGKGTSAADAVEVPAPAAVLGGPEPLMQCTAWLNAYFHQPEAIEEFPVPALHHPVFQQESFTRQVLWKLLKVVKFGEVISYQQLAALAGNPKAARAVGGAMRGNPVPILIPCHRVVCSSGAVGNYSGGLAVKEWLLAHEGHRLGKPGLGGSSGLAGAWLKGAGATSGSPPAGRN
notes: MGMT, full length; also called purified MGMT; source: purified recombinant
Take B1: the Kd is 165 nM.
